This assay deals with Unc45b^Flag, bacteria expressed and purified (mouse) (UniProt Q8CGY6). Put plainly: pull-down; apparent; skeletal MD::GFP synthesized in the coupled assay, incubated with 0-2000 nM Unc45b^Flag 1 hr at 25°C, then anti-Flag beads 1 hr at 25°C; silver stain and autoradiography.

In publication PMC2377097 one finds Kd data, which are given here for one substance.

Chain of Unc45b^Flag, bacteria expressed and purified (mouse) (Q8CGY6 whole entry): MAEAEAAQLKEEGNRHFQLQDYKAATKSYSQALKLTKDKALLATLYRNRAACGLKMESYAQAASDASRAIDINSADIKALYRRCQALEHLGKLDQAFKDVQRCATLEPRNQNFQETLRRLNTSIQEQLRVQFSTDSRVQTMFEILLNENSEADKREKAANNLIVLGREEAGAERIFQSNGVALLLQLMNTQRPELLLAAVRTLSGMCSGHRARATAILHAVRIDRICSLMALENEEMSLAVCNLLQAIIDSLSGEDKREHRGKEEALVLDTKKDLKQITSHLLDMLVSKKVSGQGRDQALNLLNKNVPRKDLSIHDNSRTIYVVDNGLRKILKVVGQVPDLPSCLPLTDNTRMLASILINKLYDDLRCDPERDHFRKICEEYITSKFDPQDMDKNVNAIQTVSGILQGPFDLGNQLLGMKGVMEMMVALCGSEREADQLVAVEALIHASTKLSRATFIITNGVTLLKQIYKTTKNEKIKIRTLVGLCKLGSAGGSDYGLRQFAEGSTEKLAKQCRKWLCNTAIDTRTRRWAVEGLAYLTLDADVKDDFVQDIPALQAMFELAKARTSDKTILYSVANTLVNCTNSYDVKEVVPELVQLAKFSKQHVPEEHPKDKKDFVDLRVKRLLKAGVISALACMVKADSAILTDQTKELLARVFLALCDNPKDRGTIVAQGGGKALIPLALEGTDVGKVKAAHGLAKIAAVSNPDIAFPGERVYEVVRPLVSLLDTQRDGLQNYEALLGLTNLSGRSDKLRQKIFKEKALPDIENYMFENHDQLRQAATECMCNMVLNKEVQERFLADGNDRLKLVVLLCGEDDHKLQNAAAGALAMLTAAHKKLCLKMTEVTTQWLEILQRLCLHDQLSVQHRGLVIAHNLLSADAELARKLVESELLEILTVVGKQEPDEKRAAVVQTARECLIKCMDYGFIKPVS

“skeletal muscle MD::GFP chimera (Sk795GFP) (domain or fragment)”: the Kd is 510 nM.
